According to PMC10508983, “Nucleotide-free structures of KIF20A illuminate atypical mechanochemistry in this kinesin-6” (Open Biology, 2023):

B1: KIF20A 25–665 (domain or fragment, mouse, UniProt P97329 25-665, looked up)
chain: ESTAADLRSVVRKDLLSDCSVISASLEDKQALLEDTSEKVKVYLRIRPFLTSELDRQEDQGCVCIENTETLVLQAPKDSFALKSNERGVGQATHKFTFSQIFGPEVGQVAFFNLTMKEMVKDVLKGQNWLIYTYGVTNSGKTYTIQGTSKDAGILPQSLALIFNSLQGQLHPTPDLKPLLSNEVIWLDSKQIRQEEMKKLSLLIGGLQEEELSTSVKKRVHTESRIGASNSFDSGVAGLSSTSQFTSSSQLDETSQLWAQPDTVPVSVPADIRFSVWISFFEIYNELLYDLLEPPSHQHKRQTLRLCEDQNGNPYVKDLNWIHVRDVEEAWKLLKVGRKNQSFASTHMNQQSSRSHSIFSIRILHLQGEGDIVPKISELSLCDLAGSERCKHQKSGERLKEAGNINTSLHTLGRCIAALRQNQQNRSKQNLIPFRDSKLTRVFQGFFTGRGRSCMIVNVNPCASTYDETLHAAKFSALASQLVHAPPVHLGIPSLHSFIKKHSPQVGPGLEKEDKADSDLEDSPEDEADVSVYGKEELLQVVEAMKALLLKERQEKLQLEIQLREEICNEMVEQMQQREQWCSERLDNQKELMEELYEEKLKILKESLTTFYQEQIQERDEKIEELETLLQEAKQQPAAQQ
notes: source: E. coli NiCO21 (DE3), purified (chitin resin, HisTrap HP, size-exclusion chromatography)
B2: KIF20A 55–665 (domain or fragment, mouse, UniProt P97329 55-665, looked up)
chain: ALLEDTSEKVKVYLRIRPFLTSELDRQEDQGCVCIENTETLVLQAPKDSFALKSNERGVGQATHKFTFSQIFGPEVGQVAFFNLTMKEMVKDVLKGQNWLIYTYGVTNSGKTYTIQGTSKDAGILPQSLALIFNSLQGQLHPTPDLKPLLSNEVIWLDSKQIRQEEMKKLSLLIGGLQEEELSTSVKKRVHTESRIGASNSFDSGVAGLSSTSQFTSSSQLDETSQLWAQPDTVPVSVPADIRFSVWISFFEIYNELLYDLLEPPSHQHKRQTLRLCEDQNGNPYVKDLNWIHVRDVEEAWKLLKVGRKNQSFASTHMNQQSSRSHSIFSIRILHLQGEGDIVPKISELSLCDLAGSERCKHQKSGERLKEAGNINTSLHTLGRCIAALRQNQQNRSKQNLIPFRDSKLTRVFQGFFTGRGRSCMIVNVNPCASTYDETLHAAKFSALASQLVHAPPVHLGIPSLHSFIKKHSPQVGPGLEKEDKADSDLEDSPEDEADVSVYGKEELLQVVEAMKALLLKERQEKLQLEIQLREEICNEMVEQMQQREQWCSERLDNQKELMEELYEEKLKILKESLTTFYQEQIQERDEKIEELETLLQEAKQQPAAQQ
notes: as for B1
B3: KIF20A 1–665 (His-tagged dimeric motor construct) (domain or fragment, mouse, UniProt P97329 1-665, looked up)
chain: MSHRILSPPAGLLSDEDVVDSPILESTAADLRSVVRKDLLSDCSVISASLEDKQALLEDTSEKVKVYLRIRPFLTSELDRQEDQGCVCIENTETLVLQAPKDSFALKSNERGVGQATHKFTFSQIFGPEVGQVAFFNLTMKEMVKDVLKGQNWLIYTYGVTNSGKTYTIQGTSKDAGILPQSLALIFNSLQGQLHPTPDLKPLLSNEVIWLDSKQIRQEEMKKLSLLIGGLQEEELSTSVKKRVHTESRIGASNSFDSGVAGLSSTSQFTSSSQLDETSQLWAQPDTVPVSVPADIRFSVWISFFEIYNELLYDLLEPPSHQHKRQTLRLCEDQNGNPYVKDLNWIHVRDVEEAWKLLKVGRKNQSFASTHMNQQSSRSHSIFSIRILHLQGEGDIVPKISELSLCDLAGSERCKHQKSGERLKEAGNINTSLHTLGRCIAALRQNQQNRSKQNLIPFRDSKLTRVFQGFFTGRGRSCMIVNVNPCASTYDETLHAAKFSALASQLVHAPPVHLGIPSLHSFIKKHSPQVGPGLEKEDKADSDLEDSPEDEADVSVYGKEELLQVVEAMKALLLKERQEKLQLEIQLREEICNEMVEQMQQREQWCSERLDNQKELMEELYEEKLKILKESLTTFYQEQIQERDEKIEELETLLQEAKQQPAAQQ
notes: source: E. coli NiCO21 (DE3), purified (chitin resin, HisTrap HP, size-exclusion chromatography); not shown: His6, C-terminal, kept

Target: the molecule itself
Assay: SEC-MALS; 5 mg ml^-1 of each protein injected into a Superdex 200 10/30 Increase column; MALS and refractive index

Stoichiometry N, 2:
B1, B2, B3
